The results in this text go back to patent US20240294646A1.

In assay [1] the target is FcγRIIb, soluble extracellular domain (UniProt P31994). As to the kind of experiment: SPR (Biacore 4000, Protocol 2): antibody captured on immobilised HER2, soluble receptor as analyte.
Assay [2] deals with FcγRIIaR, soluble extracellular domain (UniProt P12318). The assay is described as above.
Assay [3] concerns the target Soluble FcγRIIb extracellular domain with C-terminal 10×His tag (UniProt P31994). Nature of the assay: SPR (Biacore 4000), antibody captured on immobilised HER2, soluble receptor as analyte.
In assay [4] the target is Soluble FcγRIIaR extracellular domain with C-terminal 10×His tag (UniProt P12318). The assay is described as above.
A further assay concerns the target C1q (human) (UniProt P02745). Nature of the assay: ELISA; antibody coated, human C1q added, signal as % of WT. Background: ELISA stands for enzyme-linked immunosorbent assay.
Assay [5] has as its target FcγRIIb (UniProt P31994). Nature of the assay: SPR (Protocol 2); ratio of the fold for FcγRIIb to the fold for FcγRIIaR.
In assay [6] the target is FcγRIIb (UniProt P31994). Nature of the assay: SPR (Protocol 2), antibody captured on immobilised HER2, receptor as analyte.
For another assay, the target named is FcγRIIaR (UniProt P12318). Described as above.
FcγRIIaR, sequence (P12318 34-217): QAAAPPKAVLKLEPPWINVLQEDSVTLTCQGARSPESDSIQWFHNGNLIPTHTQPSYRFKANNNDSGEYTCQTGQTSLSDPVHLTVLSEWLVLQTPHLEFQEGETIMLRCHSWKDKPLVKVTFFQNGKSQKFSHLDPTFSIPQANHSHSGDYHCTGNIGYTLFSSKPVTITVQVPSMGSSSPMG

Soluble FcγRIIaR extracellular domain with C-terminal 10×His tag, sequence (P12318 other isoform, or with tags, fused parts or gaps): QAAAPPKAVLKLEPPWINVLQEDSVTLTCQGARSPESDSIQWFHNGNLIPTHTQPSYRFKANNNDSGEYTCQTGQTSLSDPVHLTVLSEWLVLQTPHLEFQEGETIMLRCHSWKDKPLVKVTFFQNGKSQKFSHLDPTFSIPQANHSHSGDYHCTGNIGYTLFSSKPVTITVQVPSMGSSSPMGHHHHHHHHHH
FcγRIIaR, soluble extracellular domain, sequence (P12318 34-217): as the sequence (P12318 34-217) above
C1q (human), sequence (P02745 23-245 limits assumed, chain 1 of 3): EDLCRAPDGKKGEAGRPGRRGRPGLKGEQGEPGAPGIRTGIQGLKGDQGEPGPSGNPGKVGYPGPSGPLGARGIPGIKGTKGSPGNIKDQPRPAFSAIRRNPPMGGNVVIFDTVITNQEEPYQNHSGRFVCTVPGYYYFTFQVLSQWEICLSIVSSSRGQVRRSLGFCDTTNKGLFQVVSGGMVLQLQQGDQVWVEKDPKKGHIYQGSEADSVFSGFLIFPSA
C1q (human), sequence (P02746 28-253 limits assumed, chain 2 of 3, further chain): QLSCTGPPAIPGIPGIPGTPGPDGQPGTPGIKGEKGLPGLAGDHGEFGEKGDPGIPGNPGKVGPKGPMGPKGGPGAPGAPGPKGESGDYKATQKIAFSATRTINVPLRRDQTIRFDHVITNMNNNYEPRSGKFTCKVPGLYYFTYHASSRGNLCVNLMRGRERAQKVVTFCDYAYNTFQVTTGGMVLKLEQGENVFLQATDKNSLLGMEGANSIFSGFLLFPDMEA
C1q (human), sequence (P02747 29-245 limits assumed, chain 3 of 3, further chain): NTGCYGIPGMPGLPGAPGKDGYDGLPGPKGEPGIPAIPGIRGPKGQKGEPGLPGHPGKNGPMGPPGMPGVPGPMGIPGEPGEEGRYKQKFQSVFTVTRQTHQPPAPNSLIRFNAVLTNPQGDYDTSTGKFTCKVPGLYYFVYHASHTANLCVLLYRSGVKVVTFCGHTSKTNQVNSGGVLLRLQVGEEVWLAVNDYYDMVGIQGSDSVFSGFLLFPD
FcγRIIb, sequence (P31994 43-217): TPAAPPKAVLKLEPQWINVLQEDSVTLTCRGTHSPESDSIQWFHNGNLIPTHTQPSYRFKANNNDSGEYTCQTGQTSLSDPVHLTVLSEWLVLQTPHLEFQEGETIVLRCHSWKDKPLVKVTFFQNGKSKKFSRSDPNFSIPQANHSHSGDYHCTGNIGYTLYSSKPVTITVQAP
FcγRIIb, soluble extracellular domain, sequence (P31994 43-217): as above
Soluble FcγRIIb extracellular domain with C-terminal 10×His tag, sequence (P31994 other isoform, or with tags, fused parts or gaps): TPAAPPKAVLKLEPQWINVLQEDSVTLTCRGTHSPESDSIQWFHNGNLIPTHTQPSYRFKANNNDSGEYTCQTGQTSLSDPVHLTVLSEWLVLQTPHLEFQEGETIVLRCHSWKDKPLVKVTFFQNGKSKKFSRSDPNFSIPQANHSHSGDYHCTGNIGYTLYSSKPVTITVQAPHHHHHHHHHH

Broadly, the Kd is the equilibrium constant for the complex coming apart. Read a low Kd as higher affinity. Take “Variant 26726 (A_D270H_strat2), one-armed trastuzumab antibody with heterodimeric IgG1 Fc”: the Kd in assay [1] stood at 23 nM; in assay [2] it was 74 nM.

“Variant 26740 (A_P271D_strat2), one-armed trastuzumab antibody with heterodimeric IgG1 Fc”: in assay [1], the Kd was 29 nM.

Consider “Variant 26710 (A_E269P_strat2), one-armed trastuzumab antibody”, for which the results for the Kd in assay [3] and in assay [4] were 27 nM and 78 nM, respectively.

“Variant 26737 (A_P271S_strat2), one-armed trastuzumab antibody with heterodimeric IgG1 Fc”: the Kd in assay [1] stood at 36 nM; in assay [2] it was 90 nM.

The substance “Variant 32256 (trastuzumab FSA; chain A A237D_strat1, chain B G330*K_strat1) (antibody)” returned a C1q Binding (% WT) with C1q (human) of 124 % WT.

Turning to “Variant 26738 (A_P271Q_strat2), one-armed trastuzumab antibody with heterodimeric IgG1 Fc”, the Kd was determined as 26 nM in assay [1] and 77 nM in assay [2].

“Variant 26731 (A_P271L_strat2), one-armed trastuzumab antibody with heterodimeric IgG1 Fc”: the results for the Kd in assay [1] and in assay [2] were 22 nM and 68 nM, respectively.

Take “Variant 26736 (A_P271T_strat2), one-armed trastuzumab antibody with heterodimeric IgG1 Fc”: the dissociation constant (Kd) is 47 nM in assay [1] and 120 nM in assay [2].

For the substance “Variant 26730 (A_P271V_strat2), one-armed trastuzumab antibody with heterodimeric IgG1 Fc”, the Kd in assay [1] came out at 27 nM; in assay [2], 85 nM.

In the assay with C1q (human), “Variant 32261 (trastuzumab FSA; chain A L234Q_strat1, chain B G330*K_strat1) (antibody)” returned a C1q Binding (% WT) of 209 % WT.

As for “Variant 26704 (A_E269Q_strat2), one-armed trastuzumab antibody”, the values for the dissociation constant (Kd) in assay [3] and in assay [4] were 22 nM and 66 nM, respectively.

For “Variant 26739 (A_P271N_strat2), one-armed trastuzumab antibody with heterodimeric IgG1 Fc”, the values for the Kd in assay [1] and in assay [2] were 28 nM and 90 nM, respectively.

With “Variant 26733 (A_P271F_strat2), one-armed trastuzumab antibody with heterodimeric IgG1 Fc”, the Kd in assay [1] amounted to 31 nM; in assay [2], 87 nM.

Regarding “Variant 26709 (A_E269H_strat2), one-armed trastuzumab antibody”, the dissociation constant (Kd) in assay [3] is 22 nM; in assay [4], 69 nM.

The substance “Variant 26732 (A_P271I_strat2), one-armed trastuzumab antibody with heterodimeric IgG1 Fc” gave a dissociation constant Kd in assay [2] of 70 nM.

“Variant 32273 (trastuzumab FSA; chain A L235R_strat2, chain B G237L_strat2) (antibody)” returned a C1q Binding (% WT) with C1q (human) of 2 % WT.

Regarding “Variant 26702 (A_E269T_strat2), one-armed trastuzumab antibody”, the values for the Kd in assay [3] and in assay [4] were 26 nM and 64 nM, respectively.

“Variant 26714 (A_D270L_strat2), one-armed trastuzumab antibody”: the results for the Kd in assay [3] and in assay [4] were 33 nM and 79 nM, respectively.

For “Variant 26707 (A_E269R_strat2), one-armed trastuzumab antibody”, the dissociation constant (Kd) in assay [3] worked out at 23 nM; in assay [4] it was 77 nM.

As to “Variant 26719 (A_D270T_strat2), one-armed trastuzumab antibody”, the results for the dissociation constant Kd in assay [3] and in assay [4] were 23 nM and 63 nM, respectively.

Consider “Variant 26711 (A_D270G_strat2), one-armed trastuzumab antibody”, for which the Kd in assay [3] amounted to 53 nM; in assay [4], 180 nM.

In the assay with C1q (human), “Variant 32268 (trastuzumab FSA; chain A S239T_strat1, chain B G330*K_strat1) (antibody)” yielded a C1q Binding (% WT) of 210 % WT.

Take “Variant 26712 (A_D270A_strat2), one-armed trastuzumab antibody”: the results for the Kd in assay [3] and in assay [4] were 29 nM and 80 nM, respectively.

Regarding “Variant 26716 (A_D270F_strat2), one-armed trastuzumab antibody”, the dissociation constant Kd in assay [3] was 17 nM; in assay [4] it was 48 nM.

Substance “Variant 32277 (trastuzumab FSA; chain A S239G_strat2, chain B G237L_strat2) (antibody)” registered a C1q Binding (% WT) in the assay with C1q (human) of 0 % WT.

Take “Variant 26701 (A_E269Y_strat2), one-armed trastuzumab antibody”: the figures for the Kd in assay [3] and in assay [4] were 21 nM and 67 nM, respectively.

As for “Variant 26703 (A_E269S_strat2), one-armed trastuzumab antibody”, the figures for the Kd in assay [3] and in assay [4] were 24 nM and 60 nM, respectively.

Turning to “Variant 26715 (A_D270I_strat2), one-armed trastuzumab antibody”, the dissociation constant (Kd) in assay [3] amounted to 25 nM; in assay [4], 81 nM.

As to “Variant 32260 (trastuzumab FSA; chain A L234D_strat1, chain B G330*K_strat1) (antibody)”, in the assay with C1q (human), the C1q Binding (% WT) came out at 189 % WT.

As for “Variant 26718 (A_D270Y_strat2), one-armed trastuzumab antibody”, the results for the dissociation constant (Kd) in assay [3] and in assay [4] were 26 nM and 69 nM, respectively.

With “Variant 26706 (A_E269D_strat2), one-armed trastuzumab antibody”, the Kd in assay [3] is 20 nM; in assay [4], 61 nM.

On to “Variant 26713 (A_D270V_strat2), one-armed trastuzumab antibody”, for which the equilibrium dissociation constant (Kd) in assay [3] was 41 nM; in assay [4] it was 89 nM.

Turning to “Variant 26708 (A_E269K_strat2), one-armed trastuzumab antibody”, the Kd in assay [3] amounted to 22 nM; in assay [4], 70 nM.

In assay [1], “Variant 26724 (A_D270R_strat2), one-armed trastuzumab antibody with heterodimeric IgG1 Fc” had a Kd of 89 nM.

Consider “Variant 19514 (chain A: none / chain B: G236H_S239D_H268D), one-armed trastuzumab antibody, Scaffold 2”, for which the IIb/IIaR Selectivity (IIb-Fold/IIaR-Fold) with FcγRIIb [5] stood at 1.7. Further, the IIb-Fold (fold change in affinity over wild-type) (fold over wild-type) in the assay with FcγRIIb [6] came out at 4.2. The IIaR-Fold (fold change in affinity over wild-type) (fold over wild-type) with FcγRIIaR was found to be 2.5.

Take “Variant 19509 (chain A: G236N / chain B: S239D_H268D), one-armed trastuzumab antibody, Scaffold 2”: the IIb/IIaR Selectivity (IIb-Fold/IIaR-Fold) with FcγRIIb [5] was 3.3. This substance also showed an IIb-Fold (fold change in affinity over wild-type) (fold over wild-type) with FcγRIIb [6] of 31.8. The substance also had an IIaR-Fold (fold change in affinity over wild-type) (fold over wild-type) with FcγRIIaR of 9.7.

Turning to “Variant 19528 (chain A: G236N / chain B: G236S_S239D_H268D), one-armed trastuzumab antibody, Scaffold 2”, the IIb/IIaR Selectivity (IIb-Fold/IIaR-Fold) with FcγRIIb [5] was 2.8. Further, the IIb-Fold (fold change in affinity over wild-type) (fold over wild-type) in the assay with FcγRIIb [6] came out at 18.6. In the assay with FcγRIIaR, the IIaR-Fold (fold change in affinity over wild-type) (fold over wild-type) was determined as 6.7.

For the substance “Variant 19523 (chain A: G236D / chain B: G236N_S239D_H268D), one-armed trastuzumab antibody, Scaffold 2”, the IIb/IIaR Selectivity (IIb-Fold/IIaR-Fold) in the assay with FcγRIIb [5] stood at 3.6. The substance also came in with an IIb-Fold (fold change in affinity over wild-type) (fold over wild-type) with FcγRIIb [6] of 6.9. The substance further showed an IIaR-Fold (fold change in affinity over wild-type) (fold over wild-type) in the assay with FcγRIIaR of 1.9.

In the case of “Variant 32263 (trastuzumab FSA; chain A L235A_strat1, chain B G330*K_strat1) (antibody)”, the C1q Binding (% WT) with C1q (human) was found to be 170 % WT.

“Variant 26705 (A_E269N_strat2), one-armed trastuzumab antibody”: the equilibrium dissociation constant (Kd) in assay [3] amounted to 26 nM; in assay [4] it was 83 nM.

As for “Variant 32257 (trastuzumab FSA; chain A A237E_strat1, chain B G330*K_strat1) (antibody)”, the C1q Binding (% WT) with C1q (human) is 145 % WT.

With “Variant 19525 (chain A: G236D / chain B: G236Q_S239D_H268D), one-armed trastuzumab antibody, Scaffold 2”, the IIb/IIaR Selectivity (IIb-Fold/IIaR-Fold) with FcγRIIb [5] stood at 3.7. The same substance had an IIb-Fold (fold change in affinity over wild-type) (fold over wild-type) with FcγRIIb [6] of 7.7. The IIaR-Fold (fold change in affinity over wild-type) (fold over wild-type) with FcγRIIaR was 2.1.

Consider “Variant 19519 (chain A: G236E / chain B: S239D_H268D), one-armed trastuzumab antibody, Scaffold 2”, for which the IIb/IIaR Selectivity (IIb-Fold/IIaR-Fold) in the assay with FcγRIIb [5] was 0.3. The substance further yielded an IIb-Fold (fold change in affinity over wild-type) (fold over wild-type) in the assay with FcγRIIb [6] of 10.3. In the assay with FcγRIIaR, this substance returned an IIaR-Fold (fold change in affinity over wild-type) (fold over wild-type) of 30.9.

For “Variant 26717 (A_D270W_strat2), one-armed trastuzumab antibody”, the dissociation constant (Kd) in assay [3] was determined as 27 nM; in assay [4] it was 83 nM.

Consider “Variant 19513 (chain A: G236H / chain B: S239D_H268D), one-armed trastuzumab antibody, Scaffold 2”, for which, in the assay with FcγRIIb [5], the IIb/IIaR Selectivity (IIb-Fold/IIaR-Fold) is 0.6. In the assay with FcγRIIb [6], the IIb-Fold (fold change in affinity over wild-type) (fold over wild-type) turned out to be 8.2. The same substance showed an IIaR-Fold (fold change in affinity over wild-type) (fold over wild-type) with FcγRIIaR of 13.4.

As to “Variant 32255 (trastuzumab FSA; chain A S239T_strat1, chain B D329*I_F328*Y_strat1) (antibody)”, in the assay with C1q (human), the C1q Binding (% WT) amounted to 194 % WT.

With “Variant 26720 (A_D270S_strat2), one-armed trastuzumab antibody”, the dissociation constant (Kd) was found to be 29 nM in assay [3] and 79 nM in assay [4].
